Laboratory results taken from patent US20240352438A1, “MEANS AND METHODS FOR DETOXIFYING OCHRATOXIN A” (DSM Austria GmbH, priority 2021, published 2024).

Key:
[1] = OTA detoxification activity assay (specific activity, fluorescence reduction ex/em 390/450 nm); assay type: biochemical; settings: SEQ ID NO: 1 = 100%
How it was run: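 Recombinant enzyme preparation with 200 ng/mL OTA in 100 mM sodium phosphate, at pH 6.0 and pH 7.5, 37° C. Degradation followed as the fall in fluorescence at ex/em 390/450 nm. Specific activity taken from the initial linear slope; one unit degrades 1 μmol OTA per min at a starting OTA of […].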

[2] = Enzymatic activity comparison: activity remaining after 65° C. for 10 min at pH 6.0, relative to SEQ ID NO: 1; assay type: physicochemical
Protocol: To compare the temperature behavior and thermostability of selected enzymes to one another, enzyme was incubated at 65° C. for 10 min at pH 6.0. The enzymatic activity remaining after incubation was compared to the remaining activity of the enzyme of SEQ ID NO: 1 after incubation, the latter being set to 100%, see Table 16.

Molecule	Specific OTA detoxification activities in % compared to the enzyme of SEQ ID NO: 1, pH 6.0 [1] [%]	Specific OTA detoxification activities in % compared to the enzyme of SEQ ID NO: 1, pH 7.5 [1] [%]	Enzymatic activity remaining after incubation, compared to SEQ ID NO: 1 (set to 100%) [2] [%]
197 (protein, exemplary polypeptide) MTTRTRILTAFLSLLAANACAADAAPAAPHTVVLRAARMFDGASGKLVDHPQLTIVGNKIVRIAQGDKAEVPAGAEVVDLGDATLLPGFIDAHVHLSGQSSDNWYGDFFDNMMRFPAEQALYGAYYARITLEAGFTSVRDVGSTDWVALGLRNAIDAGKVPGPRMLVSNYAVGSTGGHADQDPIPPHKLPLAGPLQGVCNGPEECRAAVRYQIKYGANVIKFMPSGGVLSLSDPVDAPELSQDEMNAVIGESHAWGRKVAAHAHGDKAAKMAVAAGVDSIEHGSFIEDDTLRAMKAKNVYLVPTISAIAHVEEKIGTFPPVIAEKGRAAAAHLRQTFRHAVQIGVPIALGTDAGVYAHGSNAREFRYMVENGLTPAQALLAGTANAARLLGTFDRVGTLEAGKLADVVAVPGNPIADITVTERPLFVMKDGVVVRRDAVR	59	29	29
208 (protein, exemplary polypeptide) MTTRTRILTAFLSLLAANACAADAAPAAPPTVVLRAARMFDGASGKLVDHPQLTIVGNKIVRIAQGDKAEVPAGAEVVDLGDATLLPGFIDAHVHLSGQSSDNWYGDFFDNMMRFPAEQALYGAYYARITLEAGFTSVRDVGSTDWVALGLRNAIDAGKVPGPRMLVSNYAVGSTGGHADQDPIPPHKLPLAGPLQGVCNGPEECRAAVRYQIKYGANVIKFMPSGGVLSLSDPVDAPELSQDEMNAVIGESHAWGRKVAAHAHGDKAAKMAVAAGVDSIEHGSFIEDDTLRAMKAKNVYLVPTISAIAHVEEKIGTFPPVIAEKGRAAAAHLRQTFRHAVQIGVPIALGTDAGVGAHGSNAREFRYMVENGLTPAQALLAGTANAARLLGTFDRVGTLEAGKLADVVAVPGNPIADITVTERPLFVMKDGVVVRRDAVR	135	108	35
198 (protein, exemplary polypeptide) MTTRTRILTAFLSLLAANACAADAAPAAPHTVVLRAARMFDGASGKLVDHPQLTIVGNKIVRIAQGDKAEVPAGAEVVDLGDATLLPGFIDAHVHLSGQSSDNFYGDFFDNMMRFPAEQALYGAYYARITLEAGFTSVRDVGSTDWVALGLRNAIDAGKVPGPRMLVSNYAVGSTGGHADQDPIPPHKLPLAGPLQGVCNGPEECRAAVRYQIKYGANVIKFMPSGGVLSLSDPVDAPELSQDEMNAVIGESHAWGRKVAAHAHGDKAAKMAVAAGVDSIEHGSFIEDDTLRAMKAKNVYLVPTISAIAHVEEKIGTFPPVIAEKGRAAAAHLRQTFRHAVQIGVPIALGTDAGVGAHGSNAREFRYMVENGLTPAQALLAGTANAARLLGTFDRVGTLEAGKLADVVAVPGNPIADITVTERPLFVMKDGVVVRRDAVR	111	84	55
200 (protein, exemplary polypeptide) MTTRTRILTAFLSLLAANACAADAAPAAPHTVVLRAARMFDGASGKLVDHPQLTIVGNKIVRIAQGDKAEVPAGAEVVDLGDATLLPGFIDAHVHLSGQSSDNPYGDFFDNMMRFPAEQALYGAYYARITLEAGFTSVRDVGSTDWVALGLRNAIDAGKVPGPRMLVSNYAVGSTGGHADQDPIPPHKLPLAGPLQGVCNGPEECRAAVRYQIKYGANVIKFMPSGGVLSLSDPVDAPELSQDEMNAVIGESHAWGRKVAAHAHGDKAAKMAVAAGVDSIEHGSFIEDDTLRAMKAKNVYLVPTISAIAHVEEKIGTFPPVIAEKGRAAAAHLRQTFRHAVQIGVPIALGTDAGVGAHGSNAREFRYMVENGLTPAQALLAGTANAARLLGTFDRVGTLEAGKLADVVAVPGNPIADITVTERPLFVMKDGVVVRRDAVR	18	25	88
206 (protein, exemplary polypeptide) MTTRTRILTAFLSLLAANACAADAAPAAPETVVLRAARMFDGASGKLVDHPQLTIVGNKIVRIAQGDKAEVPAGAEVVDLGDATLLPGFIDAHVHLSGQSSDNWYGDFFDNMMRFPAEQALYGAYYARITLEAGFTSVRDVGSTDWVALGLRNAIDAGKVPGPRMLVSNYAVGSTGGHADQDPIPPHKLPLAGPLQGVCNGPEECRAAVRYQIKYGANVIKFMPSGGVLSLSDPVDAPELSQDEMNAVIGESHAWGRKVAAHAHGDKAAKMAVAAGVDSIEHGSFIEDDTLRAMKAKNVYLVPTISAIAHVEEKIGTFPPVIAEKGRAAAAHLRQTFRHAVQIGVPIALGTDAGVGAHGSNAREFRYMVENGLTPAQALLAGTANAARLLGTFDRVGTLEAGKLADVVAVPGNPIADITVTERPLFVMKDGVVVRRDAVR	168	112	42
202 (protein, exemplary polypeptide) MTTRTRILTAFLSLLAANACAADAAPAAPHTVVLRAARMFDGASGKLVDHPQLTIVGNKIVRIAQGDKAEVPAGAEVVDLGDATLLPGFIDAHVHLSGQSSDNWYGDFFDNMMRFPAEQALYGAYYARITLEAGFTSVRDVGSTDWVALGLRNAIDAGKVPGPRMLVSNYAVGSTGGHADQDPIPPHKLPLAGPLQGVCNGPEECRAAVRYQIKYGANVIKFMPSGGVLSLSDPVDAPELSQDEMNAVIGESHAWGRKVAAHAHGDKAAKMAVAAGVDSIEHGSFIEDDTLRAMKAKNVYLVPTISAIAHVEEKIGTFPPVLAEKGRAAAAHLRQTFRHAVQIGVPIALGTDAGVGAHGSNAREFRYMVENGLTPAQALLAGTANAARLLGTFDRVGTLEAGKLADVVAVPGNPIADITVTERPLFVMKDGVVVRRDAVR	59	47	25
203 (protein, exemplary polypeptide) MTTRTRILTAFLSLLAANACAADAAPAAPHTVVLRAARMFDGASGKLVDHPQLTIVGNKIVRIAQGDKAEVPAGAEVVDLGDATLLPGFIDAHVHLSGQSSDNWYGDFFDNMMRFPAEQALYGAYYARITLEAGFTSVRDVGSTDWVALGLRNAIDAGKVPGPRMLVSNYAVGSTGGHADQDPIPPHKLPLAGPLQGVCNGPEECRAAVRYQIKYGANVIKFMPSGGVLSLSDPVDAPELSQDEMNAVIGESHAWGRKVAAHAHGDKAAKMAVAAGVDSIEHGSFIEDDTLRAMKAKNVYLVPTISAIAHVEEKIGTFPPVMAEKGRAAAAHLRQTFRHAVQIGVPIALGTDAGVGAHGSNAREFRYMVENGLTPAQALLAGTANAARLLGTFDRVGTLEAGKLADVVAVPGNPIADITVTERPLFVMKDGVVVRRDAVR	100	70	10
207 (protein, exemplary polypeptide) MTTRTRILTAFLSLLAANACAADAAPAAPKTVVLRAARMFDGASGKLVDHPQLTIVGNKIVRIAQGDKAEVPAGAEVVDLGDATLLPGFIDAHVHLSGQSSDNWYGDFFDNMMRFPAEQALYGAYYARITLEAGFTSVRDVGSTDWVALGLRNAIDAGKVPGPRMLVSNYAVGSTGGHADQDPIPPHKLPLAGPLQGVCNGPEECRAAVRYQIKYGANVIKFMPSGGVLSLSDPVDAPELSQDEMNAVIGESHAWGRKVAAHAHGDKAAKMAVAAGVDSIEHGSFIEDDTLRAMKAKNVYLVPTISAIAHVEEKIGTFPPVIAEKGRAAAAHLRQTFRHAVQIGVPIALGTDAGVGAHGSNAREFRYMVENGLTPAQALLAGTANAARLLGTFDRVGTLEAGKLADVVAVPGNPIADITVTERPLFVMKDGVVVRRDAVR	87	72	37
201 (protein, exemplary polypeptide) MTTRTRILTAFLSLLAANACAADAAPAAPHTVVLRAARMFDGASGKLVDHPQLTIVGNKIVRIAQGDKAEVPAGAEVVDLGDATLLPGFIDAHVHLSGQSSDNYYGDFFDNMMRFPAEQALYGAYYARITLEAGFTSVRDVGSTDWVALGLRNAIDAGKVPGPRMLVSNYAVGSTGGHADQDPIPPHKLPLAGPLQGVCNGPEECRAAVRYQIKYGANVIKFMPSGGVLSLSDPVDAPELSQDEMNAVIGESHAWGRKVAAHAHGDKAAKMAVAAGVDSIEHGSFIEDDTLRAMKAKNVYLVPTISAIAHVEEKIGTFPPVIAEKGRAAAAHLRQTFRHAVQIGVPIALGTDAGVGAHGSNAREFRYMVENGLTPAQALLAGTANAARLLGTFDRVGTLEAGKLADVVAVPGNPIADITVTERPLFVMKDGVVVRRDAVR	134	121	54
